Data reported in the supplement of paper PMC10126150.
± gives the standard deviation of the averaged measurements.

System: ATP
Assay: switch fluorescence ratio, 500 uM ATP over buffer (Cy3 cluster intensity, sum of 5 cycles each) (fold (ratio)); higher = stronger signal-on switching upon ATP binding; sequences stand for … in TCGTCGGCAGCGTCAGATGTGTATAAGAGACAGTTTTTTTTTTTTTTTTTTTTTTTTT…TC
Details: aptamer strand: ATP DNA aptamer (quencher-CACCTGGGGGAGTATTGCGGAGGAAGG + anchor), 100 nM annealed; ATP concentration: 500 uM
In short: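 Switching-strand clusters labelled with Cy3 on a modified Illumina MiSeq flow-cell were annealed to 100 nM quencher-labelled ATP aptamer, imaged in selection buffer, and re-imaged after 15 min with 500 uM ATP at 22 °C. This was done over five cycles with NaOH stripping and re-annealing in between. The fluorescence ratio is summed target-cycle over summed buffer-cycle Cy3 intensity per cluster, averaged per switch-domain sequence, excluding clusters outside 100-1000 RFU.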
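Note: ATP exposure 15 min at 22 °C before imaging.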

Row | Sequence | switch fluorescence ratio
1 | ACAGGCACGC | 1.069 ± 0.0017
2 | ACAGGCGATC | 1.09 ± 0.018
3 | ACAGGCTGAG | 0.9973 ± 0.0097
4 | ACAGGCTTTT | 1 ± 0.018
5 | ACAGGGAAAT | 0.994 ± 0.038
6 | ACAGGGATTT | 1.03 ± 0.041
7 | ACAGGGGGGT | 1.17 ± 0.24
8 | ACAGGGTTCT | 0.987 ± 0.025
9 | ACAGGTAAGG | 1.055 ± 0.0073
10 | ACAGGTCTGT | 0.9797 ± 0.0047
11 | ACAGGTGCCG | 1.13 ± 0.11
12 | ACAGGTTGTT | 1.03 ± 0.071
13 | ACAGGTTTGA | 1.03 ± 0.021
14 | ACAGGTTTGC | 1.007 ± 0.0039
15 | ACAGTAGGGA | 1.049 ± 0.0093
16 | ACAGTCGGCG | 1.03 ± 0.021
17 | ACAGTCTATT | 1.02 ± 0.043
18 | ACAGTGAAAT | 1.02 ± 0.039
19 | ACAGTGCGCG | 1.03 ± 0.083
20 | ACAGTTTTGG | 1.017 ± 0.0047
21 | ACATAAGGTA | 1.04 ± 0.03
22 | ACATAAGGTT | 1.03 ± 0.052
23 | ACATAGAAAA | 1.01 ± 0.044
24 | ACATAGGGTA | 1.01 ± 0.013
25 | ACATAGTCGA | 1.03 ± 0.045

Row | Sequence | switch fluorescence ratio
26 | ACATATGGAT | 1 ± 0.015
27 | ACATATTTTA | 1.03 ± 0.016
28 | ACATCAGATC | 1 ± 0.011
29 | ACATCCATTT | 1.02 ± 0.05
30 | ACATCCGAGT | 1.05 ± 0.054
31 | ACATCGGAAC | 1.04 ± 0.015
32 | ACATCGGGGG | 1.013 ± 0.0089
33 | ACATCGGTTG | 0.976 ± 0.028
34 | ACATCGTCGG | 1.014 ± 0.0091
35 | ACATCTCAGT | 1.06 ± 0.059
36 | ACATGAAGCA | 1.06 ± 0.025
37 | ACATGAGATT | 1.04 ± 0.015
38 | ACATGAGTGT | 1.02 ± 0.024
39 | ACATGCGTGG | 0.992 ± 0.022
40 | ACATGGGCGT | 0.977 ± 0.036
41 | ACATGGGGGC | 1 ± 0.045
42 | ACATGGGGGT | 1.01 ± 0.014
43 | ACATGGGGTC | 0.977 ± 0.012
44 | ACATGGTTAT | 0.994 ± 0.018
45 | ACATGTAGGA | 1 ± 0.032
46 | ACATGTGACG | 0.98236 ± 0.00039
47 | ACATTAAGGG | 1.06 ± 0.031
48 | ACATTAGGCT | 1.02 ± 0.046
49 | ACATTCTTTA | 0.9628 ± 0.0042
50 | ACATTGATAT | 1.01 ± 0.011

Row | Sequence | switch fluorescence ratio
51 | ACATTTAGCT | 1.01 ± 0.03
52 | ACATTTTTGC | 0.9897 ± 0.0011
53 | ACCAAATACT | 1.26 ± 0.014
54 | ACCAATATCT | 1.01 ± 0.068
55 | ACCAATGGGG | 1.02 ± 0.036
56 | ACCAATTCGC | 1.06 ± 0.029
57 | ACCAATTGAA | 1.01 ± 0.05
58 | ACCACCGAGG | 1.045 ± 0.0061
59 | ACCACGGGAA | 1.05 ± 0.032
60 | ACCAGCAGCC | 1.21 ± 0.025
61 | ACCAGGCCGC | 1.08 ± 0.03
62 | ACCAGGGAAA | 1.01 ± 0.014
63 | ACCAGGGGGA | 1.01 ± 0.023
64 | ACCAGGGGTT | 1.19 ± 0.027
65 | ACCAGGTGAT | 4.78 ± 0.26
66 | ACCAGTCTAG | 0.979 ± 0.018
67 | ACCATTTTTT | 0.9862 ± 0.006
68 | ACCCAAAAAG | 1.05 ± 0.12
69 | ACCCACGGAG | 1.17 ± 0.014
70 | ACCCAGGAGC | 1.35 ± 0.12
71 | ACCCAGGTA | 2.1 ± 0.29
72 | ACCCGCTCTT | 1.13 ± 0.022
73 | ACCCTAGTTG | 1.148 ± 0.0094
74 | ACCCTCCGGC | 2.45 ± 0.026
75 | ACCCTTGGGG | 1.02 ± 0.064

Row | Sequence | switch fluorescence ratio
76 | ACCGAGGGGT | 1.06 ± 0.077
77 | ACCGATTTTG | 0.994 ± 0.022
78 | ACCGATTTTT | 1.047 ± 0.01
79 | ACCGCAGGGG | 1.42 ± 0.6
80 | ACCGCATAGT | 2.57 ± 0.099
81 | ACCGCGAGGA | 1.54 ± 0.57
82 | ACCGCTCAGT | 1.06 ± 0.023
83 | ACCGCTTCTG | 1.04 ± 0.032
84 | ACCGGGCGAG | 1 ± 0.042
85 | ACCGGGGAAT | 1.02 ± 0.027
86 | ACCGGGGGCC | 1.02 ± 0.013
87 | ACCGGGTTTT | 1.03 ± 0.02
88 | ACCGTATCTT | 1.06 ± 0.053
89 | ACCGTCCAAA | 1.03 ± 0.024
90 | ACCGTGCCTG | 1.03 ± 0.072
91 | ACCGTGGGTC | 1.02 ± 0.029
92 | ACCGTTACTT | 1.24 ± 0.065
93 | ACCGTTCACG | 1.02 ± 0.031
94 | ACCGTTCTGA | 1.016 ± 0.0092
95 | ACCTACCTCT | 1.48 ± 0.14
96 | ACCTACTGAG | 1.351 ± 0.0076
97 | ACCTAGTCGG | 1.01 ± 0.015
98 | ACCTAGTGGG | 1.005 ± 0.0087
99 | ACCTATGAGG | 1.02 ± 0.029
100 | ACCTATTTTT | 1.01 ± 0.017

Row | Sequence | switch fluorescence ratio
101 | ACCTCCAACT | 1.179 ± 0.0092
102 | ACCTGAATTA | 1 ± 0.035
103 | ACCTGATAGT | 1.044 ± 0.0066
104 | ACCTGCAATT | 2.96 ± 0.044
105 | ACCTGGAATT | 1.01 ± 0.031
106 | ACCTGGGGGA | 1.07 ± 0.11
107 | ACCTGGTCTC | 1.07 ± 0.027
108 | ACCTGTATGG | 1.03 ± 0.044
109 | ACCTGTGGGG | 1 ± 0.027
110 | ACCTTGAATT | 1 ± 0.0029
111 | ACCTTGATGG | 0.976 ± 0.077
112 | ACCTTGGGAA | 1.01 ± 0.017
113 | ACCTTGTGCA | 1.02 ± 0.04
114 | ACCTTTAACT | 1.03 ± 0.017
115 | ACCTTTGGGC | 0.996 ± 0.039
116 | ACCTTTGTTT | 1.001 ± 0.0054
117 | ACCTTTTACG | 1.15 ± 0.072
118 | ACCTTTTGTA | 1 ± 0.032
119 | ACGAAAATTA | 1.12 ± 0.14
120 | ACGAAAGGTG | 1.58 ± 0.072
121 | ACGAACTTGA | 1.19 ± 0.055
122 | ACGAATCCTT | 1.04 ± 0.013
123 | ACGAATGCGG | 0.941 ± 0.042
124 | ACGAATTTGT | 1.03 ± 0.038
125 | ACGAGACAGC | 1.191 ± 3.6e-05

Row | Sequence | switch fluorescence ratio
126 | ACGAGAGTTG | 0.975 ± 0.021
127 | ACGAGCGATT | 1.7 ± 0.058
128 | ACGAGCTAGG | 1.13 ± 0.026
129 | ACGAGGGGAG | 1.02 ± 0.016
130 | ACGAGGGGCG | 1 ± 0.045
131 | ACGAGGTTAA | 1.01 ± 0.018
132 | ACGAGGTTGT | 0.982 ± 0.025
133 | ACGAGTACGG | 1.1 ± 0.025
134 | ACGAGTTAGG | 1.044 ± 0.0014
135 | ACGATAATTT | 1.18 ± 0.035
136 | ACGATCTGTG | 1.03 ± 0.033
137 | ACGATCTGTT | 1.0155 ± 0.00017
138 | ACGATGGCCT | 1 ± 0.014
139 | ACGATGGGCA | 1.05 ± 0.015
140 | ACGATGTGTT | 1.01 ± 0.025
141 | ACGATTTATC | 1.01 ± 0.016
142 | ACGATTTTGC | 1.04 ± 0.033
143 | ACGATTTTTT | 0.993 ± 0.013
144 | ACGCATGGGT | 1.04 ± 0.028
145 | ACGCATTCAT | 1.14 ± 0.027
146 | ACGCCCGAAC | 1.452 ± 0.013
147 | ACGCCCGGGT | 1.08 ± 0.051
148 | ACGCCTTATT | 1.03 ± 0.02
149 | ACGCGAGTAT | 1.05 ± 0.019
150 | ACGCGCGTGT | 1.02 ± 0.017

Row | Sequence | switch fluorescence ratio
151 | ACGCGGAGTG | 1.02 ± 0.016
152 | ACGCGGATTG | 1.002 ± 0.0017
153 | ACGCGGTA | 1.02 ± 0.058
154 | ACGCGGTGAC | 1.09 ± 0.025
155 | ACGCGTGAAG | 1.03 ± 0.021
156 | ACGCTCAGGT | 1.29 ± 0.041
157 | ACGCTCCAGC | 1.056 ± 0.0053
158 | ACGCTGCTAC | 4.48 ± 0.3
159 | ACGCTTTATG | 1.03 ± 0.04
160 | ACGCTTTTTT | 1.01 ± 0.024
161 | ACGGAAAACG | 1.023 ± 0.0093
162 | ACGGAAGGGC | 1.11 ± 0.059
163 | ACGGAGGGAA | 1.07 ± 0.085
164 | ACGGCAAAGG | 1.155 ± 0.0063
165 | ACGGCTCAGA | 1.013 ± 0.0079
166 | ACGGCTTTTG | 1.025 ± 0.009
167 | ACGGGAAAGT | 1.06 ± 0.089
168 | ACGGGAGAGG | 1.02 ± 0.035
169 | ACGGGAGTGG | 0.998 ± 0.011
170 | ACGGGATTTG | 0.9822 ± 0.0073
171 | ACGGGATTTT | 1.03 ± 0.026
172 | ACGGGCCCGA | 1.02 ± 0.029
173 | ACGGGGAAAA | 1.03 ± 0.036
174 | ACGGGGAAAG | 0.9916 ± 0.0019
175 | ACGGGGACTG | 1.0927 ± 0.00086

Row | Sequence | switch fluorescence ratio
176 | ACGGGGATCA | 0.981 ± 0.045
177 | ACGGGGATTT | 1.01 ± 0.019
178 | ACGGGGCCGC | 0.994 ± 0.045
179 | ACGGGGCTGG | 1.02 ± 0.048
180 | ACGGGGCTGT | 0.996 ± 0.017
181 | ACGGGGGACA | 1.02 ± 0.035
182 | ACGGGGGAGA | 1.24 ± 0.35
183 | ACGGGGGGTA | 1.02 ± 0.035
184 | ACGGGGGTTG | 1.03 ± 0.06
185 | ACGGGGGTTT | 0.997 ± 0.015
186 | ACGGGGTAGT | 1.02 ± 0.024
187 | ACGGGGTCGG | 1.01 ± 0.044
188 | ACGGGGTGCG | 0.986 ± 0.032
189 | ACGGGGTTCT | 0.965 ± 0.032
190 | ACGGGTAATG | 1.01 ± 0.035
191 | ACGGGTTTTG | 1.03 ± 0.024
192 | ACGGTAAACT | 1.18 ± 0.065
193 | ACGGTAACGC | 1.02 ± 0.011
194 | ACGGTAAGGA | 1.098 ± 0.0091
195 | ACGGTAGTTG | 0.9851 ± 0.009
196 | ACGGTATGGG | 1.07 ± 0.046
197 | ACGGTCGCGT | 1 ± 0.012
198 | ACGGTCTCGG | 1.01 ± 0.025
199 | ACGGTGAGGT | 1.02 ± 0.016
200 | ACGGTGGAGA | 1.05 ± 0.015
